Experimental data: publication PMC5343425

Target: Purified LDLR ectodomain (UniProt P01130)
Assay: SPR; BIAcore 3000; LDLR ectodomain immobilised on a CM5 chip by amine coupling (target 1000 RU); lipoprotein fractions injected at 5 nM apoB in HBS-N pH 7.4 (0.01 M HEPES, 0.15 M NaCl) with 0.5% BSA and 1 mM calcium chloride; 25 °C, 30 μl/min for 3 min; fitted with the two-state binding model (A + B ↔ AB ↔ AB*)

Sequence of Purified LDLR ectodomain (P01130 22-788): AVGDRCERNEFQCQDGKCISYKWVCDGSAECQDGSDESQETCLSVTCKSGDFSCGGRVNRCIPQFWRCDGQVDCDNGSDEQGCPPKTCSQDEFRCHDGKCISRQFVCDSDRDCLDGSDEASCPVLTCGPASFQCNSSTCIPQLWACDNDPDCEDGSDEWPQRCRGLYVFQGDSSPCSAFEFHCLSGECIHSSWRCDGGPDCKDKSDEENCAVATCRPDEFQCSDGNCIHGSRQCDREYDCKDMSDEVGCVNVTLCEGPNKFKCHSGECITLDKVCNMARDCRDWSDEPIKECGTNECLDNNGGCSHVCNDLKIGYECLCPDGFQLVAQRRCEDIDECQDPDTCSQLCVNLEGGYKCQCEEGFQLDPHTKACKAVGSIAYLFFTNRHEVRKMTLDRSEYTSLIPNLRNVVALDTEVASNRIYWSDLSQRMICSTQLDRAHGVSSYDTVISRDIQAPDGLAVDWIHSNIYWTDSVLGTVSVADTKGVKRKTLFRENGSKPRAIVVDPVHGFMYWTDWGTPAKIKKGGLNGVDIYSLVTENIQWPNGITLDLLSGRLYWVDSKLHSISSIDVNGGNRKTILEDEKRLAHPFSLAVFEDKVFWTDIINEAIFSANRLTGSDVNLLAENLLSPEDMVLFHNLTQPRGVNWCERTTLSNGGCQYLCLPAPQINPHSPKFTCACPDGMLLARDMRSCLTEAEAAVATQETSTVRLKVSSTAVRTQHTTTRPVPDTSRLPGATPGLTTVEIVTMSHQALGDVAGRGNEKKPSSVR

K1 (two-state, step 1) [M⁻¹] | K2 (two-state, step 2) | Ka [M⁻¹] | ka1 (two-state, step 1) [M⁻¹ s⁻¹] | ka2 (two-state, step 2) [s⁻¹] | kd1 (two-state, step 1) [s⁻¹] | kd2 (two-state, step 2) [s⁻¹] | Substance
1.9e+08 | 17.3 | 3.3e+09 | 930000 | 0.017 | 0.0052 | 0.00097 | VLDL1-rich TRL fraction (Sf 60-400) isolated from fasting plasma of APOE3/E4 subjects (from UniProt P02649 19-317; P02649 19-317) (complex)
1.4e+08 | 1.7 | 5e+08 | 1.45e+06 | 0.006 | 0.0127 | 0.00287 | LDL (density 1.019-1.063 g/ml) isolated from fasting APOE3/E4 subjects (from UniProt P02649 19-317; P02649 19-317) (complex)
